# Results published in the supplement of paper PMC5949888.
# Test system: Saccharomyces cerevisiae PS128 hsf1 delta, HSF1(1-493) fusion
# Experiment: growth estimate (transactivation domain function in HSF1 fusion, heat-shock survival) (a.u. (slope of normalised read count over time)); higher = stronger growth at 37°C, i.e. more transactivation activity
# Conditions: library: design library
# Summary of the method: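 The growth estimate is the slope, from a robust linear fit over time, of read counts scaled to sample totals and starting count. These counts came from Illumina MiSeq sequencing of PCR-amplified inserts, run as six barcoded replicates of one experiment. The inserts encoded designed transactivation-domain oligos fused to yeast HSF1 (amino acids 1–493) in an hsf1-deleted strain, replica-plated on –trp 5-FOA plates and incubated at 30°C or 37°C for 0, 2, 4, 6 and 8 days.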
row,Sequence,growth estimate
1,PFPDTQDDFLKWARSEEAQ,0.0578
2,MLSSHGFSVDTSALLDLFRP,-0.22
3,EDLYSILGSDVY,< -0.25
4,DFDLDMLGDFDGDMLG,4.69
5,PEFPGIELQELGELQALLQQ,-0.0807
6,MLSSHGFSVGTSALLDLFSP,-0.248
7,LFDYDFLFGNPFA,-0.0703
8,KADDIWEELLSEDL,0.514
9,MLSSHGFSVDKSALLDLFSP,-0.249
10,EDLYSILWSRVY,-0.0908
11,KEFPGIELQELQELQALLQQ,< -0.25
12,EDDDEFSAWDSML,-0.0271
13,EDLYSIKWSDVY,-0.245
14,PEAPGIELQELQELQALLQQ,< -0.25
15,PEFPGIELRELQELQALLQQ,0.0112
16,DFDLDMLGDKDLDMLG,-0.188
17,EGDDEFSLWDSML,0.054
18,DFDLDMLGDGDLDMLG,-0.147
19,DADESWDYIFETTE,-0.164
20,PFPDTQDDKLKWWRSEEAQ,-0.245
21,MLSSHGPSVDTSALLDLFSP,-0.216
22,EFNDLLDLDFIPSN,0.874
23,KDLYSILWSDVY,-0.212
24,GQNGEIAQLWDFN,< -0.25

row,Sequence,growth estimate
1,DELSWGIELLEKDG,< -0.25
2,DFDLDMLGDFDLDMPG,17.2
3,EFNDLLDLDPILSN,-0.247
4,GLDESWDYIFETTE,1.28
5,MLSSHGFSVDTSALLDPFSP,< -0.25
6,DLDKSWDYIFETTE,-0.196
7,DFDLDMLGDFDPDMLG,10.6
8,PEFPGIELQELQRLQALLQQ,< -0.25
9,MLSSHGFSVDTSAKLDLFSP,-0.237
10,PEFPKIELQELQELQALLQQ,< -0.25
11,VADDIWEEALSEDL,-0.233
12,PEFPGIELQELQEKQALLQQ,< -0.25
13,EFNKLLDLDFILSN,< -0.25
14,VADDAWEELLSEDL,-0.24
15,DELSGIIELLEKDG,-0.238
16,DELSWIIELLKKDG,-0.239
17,LFDYDFLFGNRFA,-0.205
18,DLDESWDGIFETTE,0.5
19,EDDDEFSLWDKML,-0.201
20,VADDIWEGLLSEDL,0.676
21,PFPDTQDDFLKWWRSEEAQ,-0.149
22,AQNGEIAQLWDFN,-0.205
23,PEFPGIELKELQELQALLQQ,-0.217
24,EDLYSILWSDKY,-0.125

row,Sequence,growth estimate
1,PDDDEFSLWDSML,1.67
2,DLDESWDYIFGTTE,0.717
3,DFDLDMLGDFDLRMLG,0.112
4,MLSSHGFSVDTGALLDLFSP,-0.207
5,KFDLDMLGDFDLDMLG,0.164
6,RDDDEFSLWDSML,0.648
7,PADDIWEELLSEDL,2.99
8,PEFPGIELQERQELQALLQQ,-0.248
9,QQNGEIAQLGDFN,-0.218
10,DLDESWAYIFETTE,0.283
11,LFDYDFLFGNAFA,0.211
12,PFPDTQDDFLKWWPSEEAQ,3.12
13,EDLYSILWSPVY,-0.241
14,EDDDEFSLPDSML,-0.126
15,TMDDVYNGLFDD,< -0.25
16,QQNGEIAQLWDFK,< -0.25
17,DFDLDMLGKFDLDMLG,1.77
18,DFDLDMLGDFDLDALG,0.195
19,VADAIWEELLSEDL,0.167
20,LFDKDFLFGNDFA,-0.177
21,LFDYDFLFGNDAA,2.84
22,MLSSHGFSVDTSALKDLFSP,< -0.25
23,DLDESWDYIFETTR,1.15
24,EKLYSILWSDVY,-0.183

row,Sequence,growth estimate
1,EFNDLLGLDFILSN,< -0.25
2,LFDYDFLFPNDFA,4.58
3,EDDDEFSLWDSGL,-0.19
4,QQNGEIAQLWDFP,-0.243
5,QQNGEIAQLWKFN,< -0.25
6,DLDESWPYIFETTE,-0.161
7,PELSWIIELLEKDG,-0.201
8,DLDASWDYIFETTE,0.507
9,EDAYSILWSDVY,-0.234
10,QQNGEIAQLWDAN,-0.23
11,TMDDPYNYLFDD,-0.0775
12,LFDYDFLRGNDFA,-0.143
13,TMDDRYNYLFDD,-0.144
14,EDLYSIGWSDVY,-0.212
15,EDDDEFSLWPSML,-0.166
16,EDGYSILWSDVY,-0.236
17,PFRDTQDDFLKWWRSEEAQ,-0.0923
18,PFPDTQDDFLKWPRSEEAQ,< -0.25
19,MLSSHGFSVDASALLDLFSP,0.0915
20,DGDESWDYIFETTE,-0.219
21,PEFAGIELQELQELQALLQQ,-0.244
22,QQNGEIRQLWDFN,-0.0449
23,DFPLDMLGDFDLDMLG,3.12
